This is an account of results in publication PMC4451147.

The target in experiment [1] is Tubulin purified from lamb brains (sheep (purified from lamb brains)). The experiment is described as follows: ITC; stathmin (syringe) injected into tubulin (cell); vinflunine (10 uM) in cell and syringe; 37°C; 20 mM NaPi, 4 mM MgCl2, 0.1 mM GTP, pH 6.5; one set of sites model; apparent constants. (In general: In ITC the heat of successive injections is recorded.)
For experiment [2] the target is unchanged. As to the kind of experiment: ITC; stathmin (syringe, 50-200 uM) injected into tubulin (cell, 5-20 uM); no MTA; 37°C; 20 mM NaPi, 4 mM MgCl2, 0.1 mM GTP, pH 6.5; one set of sites model; apparent constants.

B1: Human recombinant stathmin (natural protein)
chain: MASSDIQVKELEKRASGQAFELILSPRSKESVPEFPLSPPKKKDLSLEEIQKKLEAAEERRKSHEAEVLKQLAEKREHEKEVLQKAIEENNNFSKMAEEKLTHKMEANKENREAQMAAKLERLREKDKHIEEVRKNKESKDPADETEAD
On to B1, for which, in experiment [1], the Ka is 7.8e+06 M⁻¹ and the dH (kcal/mole of stathmin) was -30. Moreover, in experiment [2], the Ka amounted to 2.7e+06 M⁻¹ and the dH (kcal/mole of stathmin) was -7.5.
